Measured values reported in the DeepSol protein solubility set.

Assay: soluble on expression in E. coli; label from the status in PepcDB or PDB records

Sequence	soluble on expression in E. coli
MGSDKIHHHHHHMDTRTLIYLHQYFSIPTVSGGTRSWEFSTRLVQDKWQVCMFCGDSEIHGIPAVNILKLFNTKNVSFKLNVIPLKYSNYMSFSRRIFAFLSFAVRSSLQVLREEKADLTFATSTPLTIAIPALLRKWLHGTPYIFEVRDLWPEMPIAMKAVRSPLAIFLARQLELIAYQNASHIVALSPGMKEGIVKQGISPEKVEVIPNACDNARFNISETIGLEFLRQHPELSGGPLIVYTGTFGHINGVNYLAYLASHMRNIIPEAKFLVVGSGVCESEVREASCQLGILEKNFWMWPPIPKAEMPALLSACTVATSLFKPIPEMEHNSANKFFDALAAGRPVVINYGGWQKEILEQSGAGISISSNDPKVAAIQLAKFLNSSECLQSAQAAARKLADTVFDRDILYKKLANVFQKVLNETHSDI	not soluble
MGSDKIHHHHHHMDVMVRPSGMPAESGQEPMADGPVAAPFMRLSSKLRDDLYEEVRHDKTWHQRLTWSRGEWTPGSLTSLASRFERSLRWNKVKPEKENFDSPRPTIQSQSICREHLTGTAPEFLSEETLRILTEAVGSAQIKEAVIDMECWERTFLNSEGCSVTTQGKWFDFYASYNTGAALVRWRDGTSTQEEVSRLARPPLPILGRGVTWSEPRTIDTVRYDLVLLSPTASSVVIHELIGHGCEHFREKIVGLRVGPEELRVVAFPKNGSGFDDEGTPSEEIVLVENGIVRHAVRDRATGGMAPFSGLTKVASHGVKPGSRCTHLKAEGESSQEGVTGVPAERTVWIEHFSAANYHSGRAFFRSGLAWVGSREELLYPLMPFTMSIDIYELASLLWHLDGQTERARSGLCNKDGEFLPTFNFAPKIALRPVVSIRP	not soluble
MGSDKIHHHHHHMDYRKLPHGNEKVSTIGIGSGSLKETTSKEIEDIVTYSMEEGVNLIDTVMYDTTAAEPINNALKGHRDDMLMQIHLGVWYPKGTYSRTRVPRNVKKGFEQELKKYSTNYADIGLISYVDRVKDFEKIMSNGIFDYAKKLKQDGTIRYLGISSHSEEICKLFIETGEIDVIMFSINAAYDFKPSWGKLNLKNERMELYQECEKQGVALTVMKAYGGGQLLNEKTSPFNHAMTVPQCIQYALDRPGVVSCISGVSSKADLDEALKYYSTSEKDRDYSFIASLPHRDIMGTCIYCNHCQPCPSGIDIGIVNKYLDLAKAGDELAKDHYLKLSKNANDCTNCGVCEKNCPFHVDIRGRMLKAKNYFDKTNSVKK	not soluble
MGSDKIHHHHHHMEASFDIALASAYVNAHMYSQGLHVSRVAAKDSDFQGVSEKRYEIKDPKEMSRLIKKIGALFGSPLVRIVKLNPEWSYEHAPGDGRGYKYGEPVDIPEHWQYGIIMGIPLSWETREGAPSFFHTFEGYGNASMHCARMAEFVKKLGYPARENSPHARYEYIMPPHMVAAGIGEQGRLGVVVTPEFGPNFRPSMVVTNMPLEPDKPIDVGIRKFCMNCKICADQCPSGSISFDGPKEINGRGYDGWQINASTCHNFWMSVPNGGCRVCLAVCPFSKESNWLHTTARDIAVRERTGITASTLTWMEKAFYGVNTPEHYHYKEGTRQFDYLVGEKPWFFESKDFLKEN	not soluble
MGSDKIHHHHHHMEDLYLECPGCDEVTLHTVLKEKESKKHLKITVKCQECGTVHDIEKNFKLKDIKIVISRYDESEQSVLQIATDEILKVEDVILAFDESVEITALETEDSRRVSSSAAQDLKMIWARSIDVPKKVGISINSRESTYSFNILVPQDYVFEEKKIYRAGRDFFRIKQIKTEKGNFSRELARKIKRIYGEPVKPLRDYTDLTDYML	not soluble
MGSDKIHHHHHHMEEHFLYVPYYNRTRRIRVLLPKDYYTDTWDSYAVLYMHDGQNIFYSKESYSGYSWKIIPTIKHHKEFPKIIIVGIDNSGVDRLDEYGPWRTDVGSSPEIKKCGGKGMEYGKWVVEIVKPFIDQHYRTKPQKEHTLLAGSSMGGIITAYMGSAYPQIFGHLGVFSLASWFSEKDFLHFIHHNPIDKNSKVFIQVGTKEGDDVDSLFISNMNQAYIDCTLHYYQALLRTGHPLDNIRLRMMANEIHHEKHWADHFVEFLHFSLL	not soluble
MGSDKIHHHHHHMEERIGLIDIGSNTIRLVIFGYNKKTGLNEILNIKTPARLSQYLTKSNEMNDEGIHVLKETLSSFRKVADKFNVDALYPIATAAIRQSKNREAIIKEIKQDIHIEIQIVPEEDEAFYGYYAITHTTDIENGISVDIGGGSTEVTLFKDKQLKEAHSFPFGVVSLKRQFFGDKAHNDKTAIKNMEQFLREQFSQLDWLSNQHIALVGVGGSARNVARIHQSAHAYPIGGVHNYKMTSKDINNVYDLIRKSSRDELTNLDGLSRDRVDIILPAISVFKTLFKKIDATQFTFSRKGIREGFIMNHISKRYPDEFNKSNVRKDALRHLANEYHIEETSANRRVKLAQSLLNQIISERSLNISAMEKELFIEGSYIYYLGSFIDSDSSSPHTYYLIANSMINGFSHKDRVKLALLASFKNKSLLKFYCKETQWFSNKEIDTIQALGGIIKFANTLNISHTSFVEEVKLKAKKDDKYDLLVYYKGSPIAEEYQANRQKKHIEKILKGKVSIIFTKS	not soluble
MGSDKIHHHHHHMEFSPQQDEALQAVARWLQAGKPQLFRLFGYAGTGKTTLARYFAEHVDGQVQFAAFTGKAAQVLRSKGAVNARTIHSLIYRPKGEESVEDEVTGKTSMSPTFSLNRQSPISRAKLVVIDECSMVDEQLGRDLMSFGTPILVLGDPGQLPPISGGGFFTDHEPDFLLTEIHRQARDNPILRLALDVREGREFMRGDYGTAQVIGKEDVTQELVLKADQVLVGTNRTRRRYNQRLRELKGFNADYPQAGDKLVCLRNDPAKGLLNGSLWKVMTSSRETVKPGINLLVSPEEDDPDRGVAKIKLLKAAFEDPDADIPWQQKKRFDDFDYGYALTVHKAQGSQWNEIVLFDESWAFKETRQRWLYTAITRAAERLTIVR	not soluble
MGSDKIHHHHHHMEFVFGKKVFQSEVRKASDLKPVLAFPEALKEDFDAYYMFRDSFKTDEEAEIIRNAGLRYDYTVIPPNNIGGESIKTYGHYHPEVVRGFTYPEVYQVLEGEALFILQKPSNGKIEDVIVVEGKKWDTVIIPPNYGHVTINPTESDLITANWVCRNFSSIYEPYTKRRGACYYYINGEWVRNRNYDDAPEIRFAKPKNVLDVKGDMYDLVYTIEKLEFLVKPHEHQEIFENAFEVV	not soluble
MGSDKIHHHHHHMEHLLHYVWKHKLFPLKILQTTKGLLVEIIDSGLQNPDAGPDFFNAKLKIDGTLWVGNIEIHTHSSDWYRHGHDHDKTYDSVILHVVAEADAEVTRSNGEQIPQLLLTCPENVQTHYHELCIADQYPACYSIIGSLSKLTIHSWLTALQTERLEQKARQIADRLERCDRHWEDAFFITLARNFGFGLNGDAFETWAGLLPFRAIDKHRNDLFQIEAFFFGQAGLLEEAFLKKEQEDEYSLRLRKEFRYLQRKFELNQVMDAGLWRFLRLRPENFPHIRLAQLAYLYQKVDKLFSQMMEAETLPEVRQLLSTHASAYWDNHYIFGRPSPQREKSMGEKSQDLIVINTVVPFLYAYGLHRTDERMCDRAGRFLEELKAENNHIIRSWGDAGLPVGSAADSQALIQLRKEYCDKRKCLFCRFGYEYLRKK	not soluble
MGSDKIHHHHHHMEIDPRAQLIEWESSSLGVKGRMYVYTPPEYHPHGPALPVVYLLRGHEREWVNRREDDSRMGSAIDVYERVRARGEIGPLILAMPGLASTDNRIPGLLADFAAPHLTDAEGIGSGRFATFFFEEVLPLLEREFHAHPQARAITGFSLGGYMAVKAVALHPELFVSVSAYDGSFPYASDNGRRSRRYDTLFTASMFDPALGRPRDPDRLRDHNPICLLMRANRAALRRITWMIQYGPEHIEPWGANFYRGEYLLRALATLGIANATPIAALPDGAHTWAVADRHLEQALPLHYRAFERVMKSDP	not soluble
MGSDKIHHHHHHMEIHMNPWLNAVAQVEALEDLVLNADLVDSMRERWSGLSGSQVGRINFYTPSFKHHETSEVSACGKNAFPAISITGGDCKLQCDHCKAKILEPMIPVRTPEELDRLVDRIVLDGGRGLLLSGGSDHQNVVHYEPYFPTVRKIKDRYPNLQIAMHTGIATPEFARGMEDAGVDVAMMDVIGAQDTINQVYHLRRSVDDFEAALEALVATRMKVVPHIVIGLHYGELLGEWNALEIIQRHLPSALVLVVIMPQYAASSRPFATPAADEIGKFFMDARAALPETPVLLGCARPSGVHRSITDTYAVMAGLNGVAFPSDGMLALAKHLERDVFVTPSCCSMIVGEEVLALGDETTTVPLDYVPAAPKRRPQLRDIPIVFTA	not soluble
